# Substitutions are numbered along the chain they refer to. Names and notes keep the numbering of the source.
# B1: anti-human TF antibody N28D mutant (antibody, human IgG4 S228P, kappa, V domains shown)
# VH: QVQLLESGAVLARPGTSVKISCKASGFDIKDYYMHWVKQRPGQGLEWIGGNDPANGHSMYDPKFQGRVTITADTSTSTVFMELSSLRSEDTAVYYCARDSGYAMDYWGQGTLVTVSS
# VL: DIQMTQSPSSLSASVGDRVTITCKASQDIKSFLSWYQQKPEKAPKSLIYYATSLADGVPSRFSGSGSGTDYTLTISSLQPEDFATYYCLQHGESPYTFGGGTKVEIKR
# B2: anti-human TF antibody described in WO 99/51743 (humanized heavy chain version i, humanized light chain version b2) (antibody, human IgG4 S228P, kappa, V domains shown)
# VH: B1 VH with D28N
# VL: B1 VL
# notes: Expressed as human IgG from vector pN5KG4P-AHi-ALb2; also called original anti-human TF antibody; Original
# B3: anti-human TF antibody N51D mutant (antibody, human IgG4 S228P, kappa, V domains shown)
# VH: B1 VH with D28N, N51D
# VL: B1 VL
# B4: anti-human TF antibody N55D mutant (antibody, human IgG4 S228P, kappa, V domains shown)
# VH: B1 VH with D28N, N55D
# VL: B1 VL
# B5: anti-human TF antibody N51D/N55D double mutant (antibody, human IgG4 S228P, kappa, V domains shown)
# VH: B1 VH with D28N, N51D, N55D
# VL: B1 VL
# Key:
# hTF (Thromborel S) [1] = target: T1, hTF (Thromborel S) (human, UniProt P13726 33-295); test: cell-based or functional assay
# shTF [2] = target: T2, shTF (human, UniProt P13726 33-251, limits assumed); test: competitive ELISA on coated shTF against biotinylated anti-human TF antibody; anion exchange subpeak
# T2 construct: also called human tissue factor
# Protocol: (§1) shTF was adjusted to 20 nM with coating buffer (hereafter, indicated as CB), dispensed at 100 μl/well into a 96-well plate and incubated at 4° C. overnight. Each well was washed three times with rinse buffer (hereafter, indicated as RB); 200 μl dilution buffer (hereafter, indicated as DB) was added to each well. The plate was left standing at room temperature for 2 hours for blocking. […] The plate was washed three times with RB. After 100 μl ALP-streptavidin diluted 5,000-fold with DB was dispensed to each well, the plate was left standing for 1 hour at room temperature. Each well was washed 5 times with RB, and SIGMA104 adjusted with substrate buffer (hereafter, indicated as SB) to 1 mg/ml was dispensed to each well. Plates were left standing for 30 min at room temperature for color development and measured with a microplate reader at a wavelength of 405 nm and a control wavelength of 655 nm.
# This was taken as the binding activity.
# shTF [3] = target: T2, shTF; test: competitive ELISA on coated shTF against biotinylated anti-human TF antibody; anion exchange main peak
# Protocol: as §1
# This was taken as the binding activity.
# shTF [4] = target: T2, shTF; test: TF binding activity after 4 weeks at 40 C, pH 7.5, against own initial value (FIG. 13B)
# hTF (Thromborel S) [5] = target: T1, hTF (Thromborel S); test: cell-based or functional assay; remark: listed apart in the source
# T2 sequence (P13726 33-251 limits assumed): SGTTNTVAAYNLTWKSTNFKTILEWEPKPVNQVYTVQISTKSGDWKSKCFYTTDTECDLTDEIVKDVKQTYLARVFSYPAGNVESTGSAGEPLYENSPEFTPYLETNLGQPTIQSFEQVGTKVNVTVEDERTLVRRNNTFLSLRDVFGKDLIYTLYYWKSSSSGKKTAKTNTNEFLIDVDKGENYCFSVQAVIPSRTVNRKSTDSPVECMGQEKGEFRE
# T1 sequence (P13726 33-295 limits assumed): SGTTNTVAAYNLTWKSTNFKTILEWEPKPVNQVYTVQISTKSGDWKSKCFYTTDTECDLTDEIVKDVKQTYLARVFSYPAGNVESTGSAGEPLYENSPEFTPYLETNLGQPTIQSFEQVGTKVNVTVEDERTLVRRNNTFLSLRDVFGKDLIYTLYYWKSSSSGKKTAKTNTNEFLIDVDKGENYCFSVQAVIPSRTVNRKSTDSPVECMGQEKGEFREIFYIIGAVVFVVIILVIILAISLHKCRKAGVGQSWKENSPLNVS
binder,measurement,setting,value
B1,Calculated concentration (ng/ml) at 250 ng/ml added,hTF (Thromborel S) [1],253 ng/mL
B2,"Binding Activity, Peak 2 (% of standard antibody)",shTF [2],70.6%
same,"Binding Activity, Peak 1 (% of standard antibody)",shTF [3],100%
same,Calculated concentration (ng/ml) at 250 ng/ml added,hTF (Thromborel S) [1],248 ng/mL
same,Neutralizing activity ratio (%),hTF (Thromborel S) [1],99.1%
same,TF binding activity after 4 weeks of accelerated testing (% of its activity before),shTF [4],~60%
same,"TF neutralizing activity (Equation 2, relative to standard antibody)",hTF (Thromborel S) [5],66%
same,"TF neutralizing activity after accelerated testing at 40 C for 4 weeks, relative to the initial value",hTF (Thromborel S) [5],~40%
B3,Calculated concentration (ng/ml) at 250 ng/ml added,hTF (Thromborel S) [1],164 ng/mL
B4,Calculated concentration (ng/ml) at 250 ng/ml added,hTF (Thromborel S) [1],49.8 ng/mL
B5,Calculated concentration (ng/ml) at 250 ng/ml added,hTF (Thromborel S) [1],31.3 ng/mL

# — patent US20060287508A1 (Chugai, published 2006)
